Source: PMC11260122

T1: PTK7 (His tag) (UniProt Q13308 31-704)
T1 sequence: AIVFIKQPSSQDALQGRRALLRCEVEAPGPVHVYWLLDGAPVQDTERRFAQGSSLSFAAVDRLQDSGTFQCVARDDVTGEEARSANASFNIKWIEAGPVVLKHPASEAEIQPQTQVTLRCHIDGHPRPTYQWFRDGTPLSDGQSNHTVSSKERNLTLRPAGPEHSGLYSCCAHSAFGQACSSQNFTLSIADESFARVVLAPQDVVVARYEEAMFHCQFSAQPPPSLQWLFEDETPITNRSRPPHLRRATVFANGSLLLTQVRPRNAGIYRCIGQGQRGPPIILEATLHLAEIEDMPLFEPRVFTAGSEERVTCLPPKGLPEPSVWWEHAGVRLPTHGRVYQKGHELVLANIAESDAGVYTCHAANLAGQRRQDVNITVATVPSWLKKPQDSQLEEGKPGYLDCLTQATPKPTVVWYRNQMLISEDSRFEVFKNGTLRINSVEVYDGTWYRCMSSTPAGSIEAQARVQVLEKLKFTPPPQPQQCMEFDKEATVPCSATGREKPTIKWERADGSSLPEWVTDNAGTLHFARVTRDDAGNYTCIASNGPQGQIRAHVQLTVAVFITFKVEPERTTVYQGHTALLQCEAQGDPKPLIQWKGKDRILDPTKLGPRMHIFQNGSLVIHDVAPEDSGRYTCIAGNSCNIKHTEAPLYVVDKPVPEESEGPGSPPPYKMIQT


Molecular target: T1, PTK7 (His tag)
Experiment: SPR

Binding result, no binding:
ATCTAACTTCTGAGCCGCCGGGAAAATACTGTACGGTTAGA (structured_DNA) [G9T·C13A]
ATCTAACTGTTACGCCGCCGGGAAAATACTGTACGGTTAGA (structured_DNA) [C10T·G12A]
ATCTAACTCCTGGGCCGCCGGGAAAATACTGTACGGTTAGA (structured_DNA) [G9C·C13G]
ATCTAACTGGTCCGCCGCCGGGAAAATACTGTACGGTTAGA (structured_DNA) [C10G·G12C]
ATCTAACTGATTCGCCGCCGGGAAAATACTGTACGGTTAGA (structured_DNA) [C10A·G12T]
ATCTAACTACTGTGCCGCCGGGAAAATACTGTACGGTTAGA (structured_DNA) [G9A·C13T]
